Series [1] concerns the molecule itself. The experiment in a line: AUC.
Series [2] deals with the molecule itself. The experiment in a line: AUC. The source holds these as a separate data set.

B1: GluR6 amino terminal domain (GluR6 R1R2 ATD, residues 1-389) expressed in wild type HEK293 cells (domain or fragment)
chain: TTHVLRFGGIFEYVESGPMGAEELAFRFAVNTINRNRTLLPNTTLTYDTQKINLYDSFEASKKACDQLSLGVAAIFGPSHSSSANAVQSICNALGVPHIQTRWKHQVSDNKDSFYVSLYPDFSSLSRAILDLVQFFKWKTVTVVYDDSTGLIRLQELIKAPSRYNLRLKIRQLPADTKDAKPLLKEMKRGKEFHVIFDCSHEMAAGILKQALAMGMMTEYYHYIFTTLDLFALDVEPYRYSGVNMTGFRILNTENTQVSSIIEKWSMERLQAPPKPDSGLLDGFMTTDAALMYDAVHVVSVAVQQFPQMTVSSLQCNRHKPWRFGTRFMSLIKEAHWEGLTGRITFNKTNGLRTDFDLDVISLKEEGLEKIGTWDPASGLNMTESQKGK
modifications: N-linked glycans at five sites, non uniform (complex) glycosylation
With B1, in series [1], the affinity, expressed as Kd, was 11.3 µM. The “stoichiometry N” value in series [2] was 2.

The values are drawn from article PMC2729365 (Nature structural & molecular biology, 2009).
